Positions count from the first letter of the chain named. Where two headings read alike, the source gives them in different places. Each block holds one binder with its values, some of them ahead of it.
Experiments:
Assay in all cases: SPR (Biacore T100): antibody captured on Protein A, GST-FND1 as analyte
[1] = target: T1, Human recombinant AXL-FND1 (GST-FND1), from pET-41b(+) (human, UniProt P30530 225-331)
T1 construct: Expressed in E. coli, purified on Glutathione Sepharose; analyte in all Biacore measurements; GST put first by the usual layout of pET-41; not shown: GST-tag of vector pET-41b(+) (Novagen)
T1 sequence (looked up): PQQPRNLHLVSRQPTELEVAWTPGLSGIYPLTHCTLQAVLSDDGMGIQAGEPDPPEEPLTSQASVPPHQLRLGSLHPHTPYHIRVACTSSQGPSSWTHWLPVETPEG
Procedure: (§1) Kinetic analyses of antigen-antibody reactions of humanized AXL antibodies were carried out using Biacore T100 (BIACORE). rec-Protein A (Zymed) (hereinafter, Protein A) was immobilized onto a sensor chip, various antibodies were bound to it, then an antigen as the analyte was flushed to measure the antibody-antigen interaction. Human recombinant AXL-FND1 (prepared in 2-2; hereinafter referred to as GST-FND1) prepared at various concentrations was used as the antigen. From the sensorgrams obtained through the measurements, kinetic parameters, namely binding rate constant kₐ (1/Ms) and dissociation rate constant kd (1/s), were calculated, and Kd (M) was calculated based on these values. Biacore T100 Evaluation Software (BIACORE) was used to calculate each of the parameters.
The sensor chips were produced by immobilizing approximately 3000 RU of Protein A onto CM5 (BIACORE) by amine coupling. Using the produced sensor chip, kinetic analyses were carried out on the interaction between the Protein A-bound antibodies and GST-FND1. HBS-EP+ was used as the running buffer, and the flow rate was set to 30 μL/min. Each antibody was prepared at 1 μg/mL using the running buffer, and was subjected to binding with Protein A for two minutes. GST-FND1 as the analyte was prepared at 0.5 and 2.0 μg/mL using HBS-EP+. […]

[2] = target: T1, Human recombinant AXL-FND1 (GST-FND1), …; remark: listed apart in the source
How it was run: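 Antibodies (1 μg/mL) were captured for 2 min on a Protein A CM5 chip. GST-FND1 (0.5 and 2.0 μg/mL) in HBS-EP+ was flowed at 30 μL/min with 2 min association and 2 min dissociation at 25° C. ka and kd were fitted from sensorgrams and Kd was calculated from them.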

[3] = target: T1, Human recombinant AXL-FND1 (GST-FND1), …; remark: listed apart in the source
Procedure: as §1
The sensor chips were produced by immobilizing approximately 3000 RU of Protein A onto CM5 (BIACORE) by amine coupling. Using the produced sensor chip, kinetic analyses were carried out on the interaction between the Protein A-bound antibodies and GST-FND1. HBS-EP+ was used as the running buffer, and the flow rate was set to 30 μL/min. Each antibody was prepared at 1 μg/mL using the running buffer, and was subjected to binding with Protein A for two minutes. GST-FND1 as the analyte was prepared at 0.5 and 2.0 μg/mL using HBS-EP+. Measurements were carried out by first binding the various humanized AXL antibodies, chimeric AXL antibodies, or mouse AXL antibodies of interest to Protein A, then applying an analyte solution to them for a two-minute interaction, and then switching to HBS-EP+ (BIACORE) for a two-minute measurement of the dissociation phase. After completion of measurement of the dissociation phase, 30 μL of 10 mM glycine-HCl (pH 2.0) was used for washing to regenerate the sensor chip. Such binding, dissociation, and regeneration were defined as one cycle of analysis. All experiments were performed at 25° C.
Affinity measurements on the produced variants were carried out by the method of Example 2.

B1: chH/L0 (antibody, V domains shown, not shown: a dimerising Fc or GST)
VH: QVQLKQSGPGLVAPSQSLSITCTVSGLSLTSFGVDWVRQSPGKGLEWLGVIWGGGSTNYNSALKSRLSISKDNSKSQVFLKMNSLQTDDTAMYYCAGEGSKYGAWFAYWGQGTLVTVSA
VL: DVVMTQSPLSLPVTLGQPASISCRSSQNIVHTNGNTYLEWYQQKPGKAPELLIYKVSNRFSGVPDRFSGSGSGTDFTLKISRVEAEDVGVYYCFQGSHIPFTFGQGTKLEIKR
notes: Chimeric H chain with humanized L chain
Kd [1]: 1.59 nM

B4: H48/L34 (antibody, human IgG1, kappa)
heavy: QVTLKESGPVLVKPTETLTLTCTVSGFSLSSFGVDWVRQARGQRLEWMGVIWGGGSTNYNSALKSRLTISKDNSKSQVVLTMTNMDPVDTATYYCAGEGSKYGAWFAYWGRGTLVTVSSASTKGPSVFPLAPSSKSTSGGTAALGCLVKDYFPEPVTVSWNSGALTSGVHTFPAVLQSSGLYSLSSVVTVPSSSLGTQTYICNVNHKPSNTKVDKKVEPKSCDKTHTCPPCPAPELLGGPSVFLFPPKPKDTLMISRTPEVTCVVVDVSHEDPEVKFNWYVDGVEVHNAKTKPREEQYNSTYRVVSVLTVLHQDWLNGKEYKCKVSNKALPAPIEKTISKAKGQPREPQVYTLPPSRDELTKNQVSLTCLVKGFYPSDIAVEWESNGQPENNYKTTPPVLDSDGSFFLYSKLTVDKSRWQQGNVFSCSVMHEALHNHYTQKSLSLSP
light: DVVMTQSPLSLPVTLGRPASISCRSSRNIVHTNGNTYLEWYQQKPGKAPKLLIYKVSNRFSGVPDRFSGSGSGTDFTLKISRVEAEDVGVYYCFQGSHIPFTFGQGTKLEIKRTVAAPSVFIFPPSDEQLKSGTASVVCLLNNFYPREAKVQWKVDNALQSGNSQESVTEQDSKDSTYSLSSTLTLSKADYEKHKVYACEVTHQGLSSPVTKSFNRGEC
Kd [2]: 2.27 nM

B6: H47/L34 (antibody, human IgG1, kappa)
heavy: not shown
light: B4 light
Kd [2]: 2.2 nM

B7: H48/L11 (antibody, human IgG1, kappa)
heavy: not shown
light: B4 light with R17Q, R24Q, R27Q, K50E, L109V, K112E
Kd [2]: 2 nM

B9: H48/L27 (antibody, human IgG1, kappa)
heavy: not shown
light: B4 light with R17Q, K50E
Kd [2]: 1.99 nM

B10: H48/L35 (antibody, human IgG1, kappa)
heavy: not shown
light: B4 light with R17Q, Q105R
Kd [2]: 2.07 nM

B12: H47/L37 (antibody, human IgG1, kappa)
heavy: not shown
light: B4 light with Q105R
Kd [2]: 2.38 nM

B16: H48/L37 (antibody, human IgG1, kappa)
heavy: not shown
light: B4 light with Q105R
Kd [2]: 2.19 nM

B18: H36/L36 (antibody, human IgG1, kappa, V domains shown)
VH: QVTLKESGPVLVKPTETLTLTCTVSGFSLSSFGVDWVRQARGQRLEWMGVIWGGGSTNYNSALKSRLTISKDNSKSQVVLTMTNMDPVDTATYYCAGEGSKYGAWFAYWGQGTLVTVSS
VL: B1 VL with G34A
Kd [3]: 2.59 nM

B19: H49/L35 (antibody, human IgG1, kappa)
heavy: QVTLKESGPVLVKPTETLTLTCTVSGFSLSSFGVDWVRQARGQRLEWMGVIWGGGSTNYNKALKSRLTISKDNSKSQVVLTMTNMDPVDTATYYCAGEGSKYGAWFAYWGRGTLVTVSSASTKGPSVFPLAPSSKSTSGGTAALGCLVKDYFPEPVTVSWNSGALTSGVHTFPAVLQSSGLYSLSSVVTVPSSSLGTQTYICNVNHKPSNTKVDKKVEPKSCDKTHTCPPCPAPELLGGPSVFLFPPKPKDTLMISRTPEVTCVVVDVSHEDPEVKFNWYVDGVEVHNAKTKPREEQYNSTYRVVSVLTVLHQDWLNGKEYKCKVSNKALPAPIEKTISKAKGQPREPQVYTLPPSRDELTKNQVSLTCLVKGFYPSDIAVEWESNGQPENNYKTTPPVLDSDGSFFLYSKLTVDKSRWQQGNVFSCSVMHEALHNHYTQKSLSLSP
light: B4 light with R17Q, Q105R
Kd [2]: 2.08 nM

B20: H48/L0 (antibody, human IgG1, kappa)
heavy: not shown
light: B4 light with R17Q, R27Q, K50E
Kd [2]: 2.09 nM

B21: H50/L37 (antibody, human IgG1, kappa)
heavy: not shown
light: B4 light with Q105R
Kd [2]: 2.72 nM

B23: H49/L37 (antibody, human IgG1, kappa)
heavy: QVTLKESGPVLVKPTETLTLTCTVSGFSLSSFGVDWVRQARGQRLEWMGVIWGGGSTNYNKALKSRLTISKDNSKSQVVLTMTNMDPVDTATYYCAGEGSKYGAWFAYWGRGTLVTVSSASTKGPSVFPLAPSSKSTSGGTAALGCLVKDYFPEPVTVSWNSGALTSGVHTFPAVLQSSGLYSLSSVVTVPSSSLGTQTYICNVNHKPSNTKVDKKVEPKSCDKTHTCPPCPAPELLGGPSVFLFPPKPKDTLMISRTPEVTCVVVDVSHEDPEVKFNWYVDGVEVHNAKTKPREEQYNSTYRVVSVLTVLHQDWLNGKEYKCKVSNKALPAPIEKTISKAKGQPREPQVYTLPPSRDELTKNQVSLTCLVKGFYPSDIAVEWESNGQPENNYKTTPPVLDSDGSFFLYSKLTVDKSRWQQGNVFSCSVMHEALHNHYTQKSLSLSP
light: B4 light with Q105R
Kd [2]: 2.43 nM

B25: H48/L31 (antibody, human IgG1, kappa)
heavy: not shown
light: B4 light with R17Q
Kd [2]: 1.98 nM

B26: H49/L0 (antibody, human IgG1, kappa)
heavy: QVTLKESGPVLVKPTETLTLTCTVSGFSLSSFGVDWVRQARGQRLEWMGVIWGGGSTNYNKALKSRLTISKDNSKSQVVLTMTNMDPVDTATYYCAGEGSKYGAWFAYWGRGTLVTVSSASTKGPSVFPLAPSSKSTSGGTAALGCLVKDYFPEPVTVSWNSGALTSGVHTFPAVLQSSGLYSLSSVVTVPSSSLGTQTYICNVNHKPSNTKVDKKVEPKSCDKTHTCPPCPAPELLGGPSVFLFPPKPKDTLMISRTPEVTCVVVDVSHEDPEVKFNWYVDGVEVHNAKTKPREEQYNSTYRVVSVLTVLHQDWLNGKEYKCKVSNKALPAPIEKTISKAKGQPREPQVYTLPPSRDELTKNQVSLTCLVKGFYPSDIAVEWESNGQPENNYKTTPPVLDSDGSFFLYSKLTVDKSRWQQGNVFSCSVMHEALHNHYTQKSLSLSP
light: B4 light with R17Q, R27Q, K50E
Kd [2]: 2.06 nM

B27: H48/L28 (antibody, human IgG1, kappa)
heavy: not shown
light: B4 light with R17Q, R27Q
Kd [2]: 2.07 nM

B29: H49/L34 (antibody, human IgG1, kappa)
heavy: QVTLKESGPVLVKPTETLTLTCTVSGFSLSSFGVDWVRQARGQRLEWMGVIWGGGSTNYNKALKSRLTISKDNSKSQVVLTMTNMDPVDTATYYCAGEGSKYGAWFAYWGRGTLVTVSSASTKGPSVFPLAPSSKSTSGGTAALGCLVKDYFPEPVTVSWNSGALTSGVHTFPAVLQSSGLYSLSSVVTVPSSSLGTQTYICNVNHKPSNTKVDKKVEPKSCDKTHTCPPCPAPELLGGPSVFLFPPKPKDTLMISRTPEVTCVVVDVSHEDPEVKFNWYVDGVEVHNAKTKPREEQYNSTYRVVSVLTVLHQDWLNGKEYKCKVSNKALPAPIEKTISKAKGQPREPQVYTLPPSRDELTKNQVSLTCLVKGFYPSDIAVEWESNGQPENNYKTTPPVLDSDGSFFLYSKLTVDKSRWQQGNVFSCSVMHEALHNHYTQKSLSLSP
light: B4 light
Kd [2]: 2.21 nM

B30: H48/L1 (antibody, human IgG1, kappa)
heavy: not shown
light: B4 light with R17Q, R24Q, R27Q, K50E
Kd [2]: 2.09 nM

B31: H9/L36 (antibody, human IgG1, kappa, V domains shown)
VH: B18 VH with R41P, Q43K, R44G
VL: B1 VL with G34A
Kd [3]: 3.6 nM

B35: H6/L0 (antibody, V domains shown, not shown: a dimerising Fc or GST)
VH: B1 VH with G97R
VL: B1 VL
notes: H6 is chH with arginine for glycine at Kabat position 94
Kd [1]: 12.3 nM

B36: H50/L35 (antibody, human IgG1, kappa)
heavy: not shown
light: B4 light with R17Q, Q105R
Kd [2]: 2.24 nM

B37: H49/L28 (antibody, human IgG1, kappa)
heavy: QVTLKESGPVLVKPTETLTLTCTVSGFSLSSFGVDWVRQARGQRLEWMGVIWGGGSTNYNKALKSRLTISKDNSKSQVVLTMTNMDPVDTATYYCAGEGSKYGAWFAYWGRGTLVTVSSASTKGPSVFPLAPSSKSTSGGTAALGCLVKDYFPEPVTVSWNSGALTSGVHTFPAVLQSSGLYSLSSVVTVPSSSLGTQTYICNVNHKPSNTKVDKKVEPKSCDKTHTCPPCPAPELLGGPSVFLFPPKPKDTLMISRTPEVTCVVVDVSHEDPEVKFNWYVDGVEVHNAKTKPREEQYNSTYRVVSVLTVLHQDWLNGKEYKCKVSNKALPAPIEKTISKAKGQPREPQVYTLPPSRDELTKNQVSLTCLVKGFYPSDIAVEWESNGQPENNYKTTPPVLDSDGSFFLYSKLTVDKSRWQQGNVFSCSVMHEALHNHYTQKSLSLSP
light: B4 light with R17Q, R27Q
Kd [2]: 2.11 nM

B38: H50/L34 (antibody, human IgG1, kappa)
heavy: not shown
light: B4 light
Kd [2]: 2.36 nM

B39: H48/L10 (antibody, human IgG1, kappa)
heavy: not shown
light: B4 light with R17Q, R27Q, K50E, L109V, K112E
Kd [2]: 2.06 nM

B40: H49/L10 (antibody, human IgG1, kappa)
heavy: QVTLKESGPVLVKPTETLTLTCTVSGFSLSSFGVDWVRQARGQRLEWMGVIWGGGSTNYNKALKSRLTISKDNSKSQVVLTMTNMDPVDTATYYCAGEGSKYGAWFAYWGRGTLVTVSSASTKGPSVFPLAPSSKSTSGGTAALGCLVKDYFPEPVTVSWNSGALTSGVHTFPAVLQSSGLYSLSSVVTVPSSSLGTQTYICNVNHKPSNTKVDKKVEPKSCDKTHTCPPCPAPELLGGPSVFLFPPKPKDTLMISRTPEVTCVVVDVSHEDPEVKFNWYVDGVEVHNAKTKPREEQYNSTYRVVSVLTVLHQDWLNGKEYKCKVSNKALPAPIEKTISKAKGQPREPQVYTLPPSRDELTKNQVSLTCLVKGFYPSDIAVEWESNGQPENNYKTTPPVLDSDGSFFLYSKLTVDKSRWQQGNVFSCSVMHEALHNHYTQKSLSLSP
light: B4 light with R17Q, R27Q, K50E, L109V, K112E
Kd [2]: 2.05 nM

B41: H32/L21 (antibody, human IgG1, kappa, V domains shown)
VH: B18 VH with R41P, Q43K, R44G, S61E, K64Q, S65D, Q111E
VL: B1 VL with R24Q, G34A, L109V, K112E
Kd [3]: 3.81 nM

B43: H49/L27 (antibody, human IgG1, kappa)
heavy: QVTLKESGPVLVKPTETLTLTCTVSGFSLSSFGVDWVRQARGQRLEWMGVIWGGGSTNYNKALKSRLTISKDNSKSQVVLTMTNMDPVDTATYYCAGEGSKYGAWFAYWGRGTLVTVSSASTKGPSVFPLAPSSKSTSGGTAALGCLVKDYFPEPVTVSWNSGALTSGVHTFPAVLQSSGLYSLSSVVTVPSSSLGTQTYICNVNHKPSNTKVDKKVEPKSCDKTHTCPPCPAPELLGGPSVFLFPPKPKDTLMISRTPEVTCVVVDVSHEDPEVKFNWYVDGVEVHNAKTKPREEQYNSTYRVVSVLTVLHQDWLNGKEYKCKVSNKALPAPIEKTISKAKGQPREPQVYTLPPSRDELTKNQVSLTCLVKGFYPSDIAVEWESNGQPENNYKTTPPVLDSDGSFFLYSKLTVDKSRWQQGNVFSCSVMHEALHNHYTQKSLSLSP
light: B4 light with R17Q, K50E
Kd [2]: 2.08 nM

The next lines start with the values.

Kd [2]: 1.94 nM
B2: H49/L31 (antibody, human IgG1, kappa)
heavy: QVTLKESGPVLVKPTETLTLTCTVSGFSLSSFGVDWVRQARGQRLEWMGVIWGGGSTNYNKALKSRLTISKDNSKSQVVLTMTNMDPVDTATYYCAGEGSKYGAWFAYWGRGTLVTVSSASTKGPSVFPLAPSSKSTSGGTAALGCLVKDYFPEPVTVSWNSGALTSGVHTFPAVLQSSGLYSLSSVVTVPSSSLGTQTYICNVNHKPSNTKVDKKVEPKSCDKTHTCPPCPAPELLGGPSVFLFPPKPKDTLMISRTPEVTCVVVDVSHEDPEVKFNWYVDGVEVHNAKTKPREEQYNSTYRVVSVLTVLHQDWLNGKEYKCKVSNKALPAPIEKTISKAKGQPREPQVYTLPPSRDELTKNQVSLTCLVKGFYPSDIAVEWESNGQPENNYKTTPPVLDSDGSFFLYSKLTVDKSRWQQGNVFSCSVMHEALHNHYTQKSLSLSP
light: B4 light with R17Q

Kd [2]: 1.83 nM
B3: H47/L11 (antibody, human IgG1, kappa)
heavy: not shown
light: B4 light with R17Q, R24Q, R27Q, K50E, L109V, K112E

Kd [2]: 1.89 nM
B5: H50/L0 (antibody, human IgG1, kappa)
heavy: not shown
light: B4 light with R17Q, R27Q, K50E

Kd [2]: 1.93 nM
B8: H50/L31 (antibody, human IgG1, kappa)
heavy: not shown
light: B4 light with R17Q

Kd [2]: 1.52 nM
B11: H47/L28 (antibody, human IgG1, kappa)
heavy: not shown
light: B4 light with R17Q, R27Q

Kd [2]: 1.91 nM
B13: H49/L1 (antibody, human IgG1, kappa)
heavy: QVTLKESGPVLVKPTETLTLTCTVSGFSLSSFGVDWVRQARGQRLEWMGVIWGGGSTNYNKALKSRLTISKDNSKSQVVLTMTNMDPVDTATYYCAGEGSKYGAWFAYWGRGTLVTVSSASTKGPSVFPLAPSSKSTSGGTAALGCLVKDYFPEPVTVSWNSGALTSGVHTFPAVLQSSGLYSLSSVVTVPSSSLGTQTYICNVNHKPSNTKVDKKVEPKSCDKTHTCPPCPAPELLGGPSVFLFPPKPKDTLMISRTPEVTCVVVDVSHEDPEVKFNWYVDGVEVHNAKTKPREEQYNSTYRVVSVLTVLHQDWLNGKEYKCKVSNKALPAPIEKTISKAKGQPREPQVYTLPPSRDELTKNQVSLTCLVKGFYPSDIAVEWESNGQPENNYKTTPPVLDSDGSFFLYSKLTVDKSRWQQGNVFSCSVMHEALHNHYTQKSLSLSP
light: B4 light with R17Q, R24Q, R27Q, K50E

Kd [2]: 1.6 nM
B14: H47/L27 (antibody, human IgG1, kappa)
heavy: not shown
light: B4 light with R17Q, K50E

Kd [2]: 1.89 nM
B15: H47/L10 (antibody, human IgG1, kappa)
heavy: not shown
light: B4 light with R17Q, R27Q, K50E, L109V, K112E

Kd [2]: 1.92 nM
B17: H49/L11 (antibody, human IgG1, kappa)
heavy: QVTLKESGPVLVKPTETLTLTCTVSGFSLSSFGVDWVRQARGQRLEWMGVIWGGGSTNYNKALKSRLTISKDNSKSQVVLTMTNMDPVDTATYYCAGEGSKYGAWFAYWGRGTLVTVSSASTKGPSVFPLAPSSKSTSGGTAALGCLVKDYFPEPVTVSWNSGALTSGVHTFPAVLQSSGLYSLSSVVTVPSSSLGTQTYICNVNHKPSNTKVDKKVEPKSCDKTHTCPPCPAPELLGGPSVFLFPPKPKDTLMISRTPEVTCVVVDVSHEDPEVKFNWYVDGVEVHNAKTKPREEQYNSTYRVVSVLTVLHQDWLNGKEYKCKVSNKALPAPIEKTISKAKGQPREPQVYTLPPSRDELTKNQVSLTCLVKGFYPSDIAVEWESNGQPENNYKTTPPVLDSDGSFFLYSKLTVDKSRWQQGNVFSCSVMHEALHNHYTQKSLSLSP
light: B4 light with R17Q, R24Q, R27Q, K50E, L109V, K112E

Kd [2]: 1.83 nM
B22: H47/L31 (antibody, human IgG1, kappa)
heavy: not shown
light: B4 light with R17Q

Kd [2]: 1.9 nM
B24: H50/L10 (antibody, human IgG1, kappa)
heavy: not shown
light: B4 light with R17Q, R27Q, K50E, L109V, K112E

Kd [2]: 1.95 nM
B28: H50/L27 (antibody, human IgG1, kappa)
heavy: not shown
light: B4 light with R17Q, K50E

Kd [2]: 1.86 nM
B32: H50/L1 (antibody, human IgG1, kappa)
heavy: not shown
light: B4 light with R17Q, R24Q, R27Q, K50E

Kd [2]: 1.97 nM
B33: H50/L28 (antibody, human IgG1, kappa)
heavy: not shown
light: B4 light with R17Q, R27Q

Kd [2]: 1.82 nM
B34: H50/L11 (antibody, human IgG1, kappa)
heavy: not shown
light: B4 light with R17Q, R24Q, R27Q, K50E, L109V, K112E

Kd [2]: 1.68 nM
B42: H47/L35 (antibody, human IgG1, kappa)
heavy: not shown
light: B4 light with R17Q, Q105R

From US20120121587A1 (Chugai, published 2012)
